Assay results from the supplement of paper PMC11780869.

System: Bacillus subtilis
Assay: cleaved RNA product abundance (RNA/gDNA barcode ratio) relative to median wild-type variant (ratio to wild type); higher = more accumulation of the downstream cleavage product
Procedure: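 MPRA in B. subtilis. Mutagenized RNase Y cleavage-site regions (9% mutation rate) were inserted into a barcoded reporter mRNA (truncated aprE or tetM). Cells were grown in LB at 37°C to OD600 0.3. The cleaved RNA isoform was gel-purified and its barcodes counted; the RNA:gDNA barcode ratio was normalised to the median wild-type variant, and the median over barcodes is reported per variant. The printed sequence is the variable window only; the reporter flanks are not printed.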

[1] = experiment (reporter, strain, medium): exp 2b: truncated aprE reporter, strain BJT200, cleavage site: cggR-gapA (positions -7 to +36 mutated)
[2] = experiment (reporter, strain, medium): exp 4a: truncated aprE reporter, strain BJT201 with 2% xylose (RNase J1 expressed), cleavage site: cggR-gapA (positions -7 to +36 mutated)
[3] = experiment (reporter, strain, medium): exp 6: tetM reporter, strain 168, cleavage site: cggR-gapA (positions -7 to +36 mutated)
[4] = experiment (reporter, strain, medium): exp 8a: truncated aprE reporter, strain BJT201 with 2% xylose (RNase J1 expressed), cleavage site: glnRA (positions -5 to +31 mutated)

| Sequence | cleaved RNA product abundance [1] | cleaved RNA product abundance [2] | cleaved RNA product abundance [3] | cleaved RNA product abundance [4] |
| --- | --- | --- | --- | --- |
| ACAGACGAAGGAGCCGCAAAGAAGTTATTAAGGGCTGAATAATCCCTCAATATAAATATCTCTCACTTATTTAAA | 0.587 | 0.593 | 0.473 |  |
| ACAGACGAAGGAGCCGCAAAGAAGTTATTAAGTGATAAATAATCCCTCAATATAAATATCTCTCACTTATTTAAA |  | 0.103 | 0.113 |  |
| ACAGACGAAGGAGCCGCAAAGAAGTTATTAAGGGTTGAATAATCCGTCAATATAAATATCTCTCACTTATTTAAA |  | 0.187 |  |  |
| CGACATGTCCCGCTTCTTTCATTAATCCATTAGCAACTGTTTTGCTATATACATCTACCTTTTAAGAGGAGGAAT |  |  |  | 0.942 |
| ACAGACGAAGGAGCCGCAAAGAAGTTAATAAGGGATGAATTATCCCTCAATATAAATATCTCTCACTTATTTAAA |  | 0.339 |  |  |
| ACAGACGAAGGAGCCGCAAAGAAGTTATTAAGGGATGAATAATCTCTAAATATAAATATCTCTCACTTATTTAAA | 0.627 | 0.558 |  |  |
| ACAGACGAAGGAGCCGCAAAGAAGTTATTATGGGATGAATAATCCCTCAATATATATATCTCTCACTTATTTAAA |  | 0.503 |  |  |
| CGACATGTCCCGCTTCTTTCATTAATCCGTTAACAACTGTATTGCTATATACATTTACCTTTTAAGAGGAGGAAT |  |  |  | 0.316 |
| ACAGACGAAGGAGCCGCAAAGAAGATATTAAGGGATGAATAATCCTTCAATATAAATATCTCTCACTTATTTAAA |  | 0.762 |  |  |
| ACAGACGAAGGAGCCGCAATGAAGTAATTAAGGGATGAATAATCCCTCAATATAAATATCTCTCACTTATTTAAA |  | 0.364 |  |  |
| ACAGACGAAGGAGCCGCAAAGAAGTTATTAAGGGACTAATAATCCCTCAATATAAATATCTCTCACTTATTTAAA | 1.03 | 1.01 |  |  |
| ACAGACGAAGGAGCCGCAAAGAAGTTATTAGGGGATGAATAATCCTTCAATATAAATATCTCTCACTTATTTAAA |  | 0.636 |  |  |
| ACAGACGAAGGAGCCGCAAAGAATTTATTAAGGGATGAATAATCCCTCAATATATATATCTCTCACTTATTTAAA | 0.649 | 0.46 |  |  |
| CGACATGTCCCGCTTCTTTCATTAATCCGTTAGCAACTGTTTTGCTATCTAAATTTACCTTTTAAGAGGAGGAAT |  |  |  | 0.123 |
| ACAGACGAAGGAGCCGCTAAGAAGTTATTAAGGGATGAATAATTCCTCAATATAAATATCTCTCACTTATTTAAA | 0.713 |  |  |  |
| CGACATGTCCCGCTTCTTTCATTAATCCGTTAACAACTGTTTTGCTATAAACATTTACCTTTTAAGAGGAGGAAT |  |  |  | 0.207 |
| ACAGACGAAGGAGCCGCGAAGAAGTTATTAAGGGATGAATACTCCCTCAATATAAATATCTCTCACTTATTTAAA |  | 0.528 |  |  |
| ACAGACGAAGGAGCCGCAAGGAAGTTATTAAGGGACGAATAATCCCTCAATATAAATATCTCTCACTTATTTAAA |  | 0.614 |  |  |
| ACAGACGAAGGAGCCGCAAAGAAGTTACTAAGGAATGAATAATCCCTCAATATAAATATCTCTCACTTATTTAAA | 0.0952 | 0.143 |  |  |
| ACAGACGAAGGAGCCGCAAAGAGCTTATTAAGGGATGAATAATCCCTCAATATAAATATCTCTCACTTATTTAAA |  | 0.743 |  |  |
| CGACATGTCCCGCTTCTTTCATTAATCCGTTAGCAACTGTTTAGCTATATACATTTATCTTTTAAGAGGAGGAAT |  |  |  | 0.572 |
| ACAGACGAAGGAGCCGCAAAGAAGTTATTAAGGGGTGAATAATCCCTCAATATAAATATCTCTCACTTATTTAAA | 0.652 | 0.741 | 0.741 |  |
| ACAGACGAAGGAGCCGCAAAGTAGTTATTAAGGGATGAATAATCACTCAATATAAATATCTCTCACTTATTTAAA | 0.11 | 0.183 |  |  |
| ACAGACGAAGGAGCCGCAAAGAAGTTATAAAGGTATGAATAATCCCTCAATATAAATATCTCTCACTTATTTAAA | 0.0925 | 0.0975 |  |  |
| ACAGACGAAGGAGCCGCCAAGAAGTAATTAAGGGATGAATAATCCCTCAATATAAATATCTCTCACTTATTTAAA |  | 0.375 |  |  |
| ACAGACGAAGGAGCCGCAAAGAAGTTATTAAGGGATGAATAATCCCTCAATATAAATATTTCTCACTTATTTAAA | 1 | 0.864 |  |  |
| CGACATGTCCCGCTTCTTTCATTAATCCGTTCGCAACTGTTTTGCTATATATATTTACCTTTTAAGAGGAGGAAT |  |  |  | 0.324 |
| ACAGACGAAGGAGCCGCAAAGAAGTAATTAAGGGACGAATAATCCCTCAATATAAATATCTCTCACTTATTTAAA | 0.139 | 0.175 |  |  |
